In series [1] the target is T1, C/EBP (C/EBPalpha) (Rattus norvegicus, UniProt P05554 P05554:1-358). Put plainly: EMSA; text cites SEQ ID NO:41, Table 3 lists AlbD as SEQ ID NO:47. The following applies: tags: E. coli pT7-7, about 40 kDa; chain copies: 2; label: 32P.
In series [2] the target is T1, C/EBP (C/EBPalpha). Put plainly: EMSA. The following applies: tags: E. coli pT7-7, about 40 kDa, chain copies: 2. A general note: Mobility shift assays separate free from complexed probe on a gel.
Series [3] concerns the target T1, C/EBP (C/EBPalpha). Put plainly: EMSA; C/EBP-BA3 complex. The following applies: tags: E. coli pT7-7, about 40 kDa; chain copies: 2; label: 32P.

T1 sequence (P05554 whole entry, one chain of several): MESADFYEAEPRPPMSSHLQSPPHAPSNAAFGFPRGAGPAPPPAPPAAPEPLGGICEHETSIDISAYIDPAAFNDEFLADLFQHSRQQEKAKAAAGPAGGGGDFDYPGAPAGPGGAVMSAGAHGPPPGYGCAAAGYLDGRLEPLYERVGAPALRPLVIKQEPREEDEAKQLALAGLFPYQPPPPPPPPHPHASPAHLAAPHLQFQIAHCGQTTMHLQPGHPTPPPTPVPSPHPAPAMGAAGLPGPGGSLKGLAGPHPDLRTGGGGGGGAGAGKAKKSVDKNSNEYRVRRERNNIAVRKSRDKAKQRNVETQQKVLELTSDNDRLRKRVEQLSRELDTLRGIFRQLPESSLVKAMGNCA

B1: Albumin D C/EBP site (AlbD, -115 to -90) (dsDNA)
DNA 1: TGGTATGATTTTGTAATGGGGTAGGA
DNA 2: TCCTACCCCATTACAAAATCATACCA
As to B1, the binding result with C/EBP (C/EBPalpha) [1] is given as “binds”.

B2: apoA-II element K (-760 to -743) (dsDNA)
DNA 1: TAAGGTGATCAAATGACC
DNA 2: GGTCATTTGATCACCTTA
Consider B2, for which, in the series with C/EBP (C/EBPalpha) [2], the binding result is given as “no binding”.

B3: BA3 apoB -78 to -48 (dsDNA)
DNA 1: GCCCTTTGGACCTTTTGCAATCCTGGCGCT
DNA 2: AGCGCCAGGATTGCAAAAGGTCCAAAGGGC
Regarding B3, the binding result with C/EBP (C/EBPalpha) [3] is on record as “binds”.

B4: CIIIB(WT) apoCIII -92 to -67 (dsDNA)
DNA 1: GGTCAGCAGGTGACCTTTGCCCAGCG
DNA 2: CGCTGGGCAAAGGTCACCTGCTGACC
For the molecule B4, the binding result in the series with C/EBP (C/EBPalpha) [2] (label: 32P, GGG/CCC 5' overhangs) was “no binding”.

These data come from patent US5877009, “Isolated ApoA-I gene regulatory sequence elements” (Trustees of Boston University).
